For assay [1], the target named is T1, human CEACAM6, full-length, on cells (human, UniProt P40199 35-320).
T1 construct: used both for transfected HeLa cells and for tumor cell lines that express CEACAM6 endogenously; also called TPP-4639; HeLa human CEACAM6
T1 sequence: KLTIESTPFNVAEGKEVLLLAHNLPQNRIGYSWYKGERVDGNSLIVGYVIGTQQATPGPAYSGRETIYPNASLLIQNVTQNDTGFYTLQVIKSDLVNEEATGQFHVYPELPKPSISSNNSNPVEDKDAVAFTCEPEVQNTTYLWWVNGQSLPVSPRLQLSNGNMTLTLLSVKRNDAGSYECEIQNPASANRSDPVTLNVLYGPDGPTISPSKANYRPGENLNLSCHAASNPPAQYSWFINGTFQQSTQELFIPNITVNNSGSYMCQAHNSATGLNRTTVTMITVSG
Kind of assay: FACS, PaTu-8902 cells (endogenous CEACAM6). The method, then:
(§1) For FACS experiments HeLa wild type cells were cultured in RPMI-1640, 10% FCS, while CEACAM-receptor transfected HeLa cells received in addition 0.5% Gentamycin (stock 10 mg/ml, Fa. PAA) and 200 μg/ml Hygromycin B (stock 50 mg/ml, Invitrogen). Cells were washed 3 times with PBS w/o Ca²⁺/Mg²⁺ and were detached from the culture plate non-enzymatically with EDTA dissociation buffer (Gibco). Cells were washed in cold FACS buffer (PBS w/o Ca²⁺/Mg²⁺ and heat-inactivated 3% FCS) and were counted using a countess machine (Invitrogen). 10⁵ cells per well were plated and incubated with the respective primary antibody (5 μg/ml) for 1 h at 4° C. on a plate shaker. […] After 2 times washing the cells were resuspended in 100 μl FACS buffer and were analysed on a FACS Canto II machine (Beckton Dickinson) or a FACS Array (Beckton Dickinson).
(§2) For EC₅₀ analysis, the primary antibodies were used at increasing concentrations in a range from 0.1 nM to 100 nM. Half maximal binding values (EC₅₀) were determined by plotting the median fluorescence intensity signal against the concentration (logarithmic scale). Curve fitting of data was performed using the Graph Pad prism analysis software.
(§3) Anti-CEACAM6 antibodies were also tested for their binding to different cancer cell lines that endogenously express CEACAM6 by FACS analysis. […]

The target in assay [2] is T1, human CEACAM6, full-length, on cells. The assay can be described thus: FACS, KS cells (endogenous CEACAM6). For orientation: In flow cytometry, cells or beads pass a laser one at a time.
The target is the same in assay [3]. The assay can be described thus: FACS, SNU-C1 cells (endogenous CEACAM6). The method, then: as §1, §2, §3
Assay [4] has as its target T2, Human CEACAM6-Domain 1-His-I30L (I63L according to SEQ-ID NO: 179) (human).
T2 construct: the entry already carries the substitution; also called TPP-8697
T2 chain: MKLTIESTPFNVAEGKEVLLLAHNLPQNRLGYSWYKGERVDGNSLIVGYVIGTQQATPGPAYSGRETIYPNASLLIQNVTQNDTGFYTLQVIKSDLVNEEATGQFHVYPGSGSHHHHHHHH
Kind of assay: ELISA, domain 1 protein coated. The method, then:
(§4) The proteins were expressed in E. coli, refolded and purified as described in Example 1. Comparative binding activity to domain 1 wild-type protein and the two single mutations was determined by ELISA method. 1.5 ug/ml protein solutions in PBS were coated overnight to 384 Nunc MaxiSorp plates (Sigma, P6491). Plates were washed with PBS/T and blocked with Smart block (CANDOR Bioscience GmbH, 113125). […] After washing with PBS/T, bound antibodies were detected with Anti Human IgG Fc POD (Sigma, A0170) and 10 μM Amplex Red solution (Thermo, A12222). Positive binding signals were detected via Fluorescence (Ex. 535 nm/Em. 590 nm).
For orientation: ELISA stands for enzyme-linked immunosorbent assay.

The target in assay [5] is T3, Human CEACAM6-Domain 1-His-I30F (I63F according to SEQ-ID NO: 179) (human).
T3 construct: the entry already carries the substitution; also called TPP-8698
T3 chain: T2 chain with L30F
Kind of assay: ELISA, domain 1 protein coated. Here is the method: as §4

The target in assay [6] is T1, human CEACAM6, full-length, on cells. The assay can be described thus: FACS, T84 cells (endogenous CEACAM6). Here is the method:
as §1, §2, §3

Substitutions are numbered along the chain they refer to.

Here are results for one molecule from US20200181261A1 (Bayer, published 2020).

B1: TPP-3310 (antibody, human IgG2, kappa)
heavy: QVTLRESGPALVKPTQTLTLTCTFSGFSLSTYGIGVGWIRQPPGKALEWLAHIWWNDNKYYSTSLKTRLTISKDTSKNQVVLTMTNMDPVDTATYYCARISLPYFDYWGQGTTLTVSSASTKGPSVFPLAPCSRSTSESTAALGCLVKDYFPEPVTVSWNSGALTSGVHTFPAVLQSSGLYSLSSVVTVPSSNFGTQTYTCNVDHKPSNTKVDKTVERKCCVECPPCPAPPVAGPSVFLFPPKPKDTLMISRTPEVTCVVVDVSHEDPEVQFNWYVDGVEVHNAKTKPREEQFNSTFRVVSVLTVVHQDWLNGKEYKCKVSNKGLPAPIEKTISKTKGQPREPQVYTLPPSREEMTKNQVSLTCLVKGFYPSDIAVEWESNGQPENNYKTTPPMLDSDGSFFLYSKLTVDKSRWQQGNVFSCSVMHEALHNHYTQKSLSLSPG
light: DIQLTQSPSFLSASVGDRVTITCKASQNVGTAVAWYQQKPGKAPKLLIYSASNRYTGVPSRFSGSGSGTEFTLTISSLQPEDFATYYCQQYSSYPLTFGGGTKVEIKRTVAAPSVFIFPPSDEQLKSGTASVVCLLNNFYPREAKVQWKVDNALQSGNSQESVTEQDSKDSTYSLSSTLTLSKADYEKHKVYACEVTHQGLSSPVTKSFNRGEC
notes: humanized from TPP-2971, human IgG2; also called TPP-2971HU1-hIgG2Kappa
By EC50 is commonly meant the concentration giving half of the maximal effect. Lower therefore signals a more potent agent. In the case of B1, the EC50 in assay [1] was determined as 150 pM; in assay [2], 800 pM; in assay [3] it was 500 pM; in assay [6] it was 300 pM. Besides, the binding result is listed as “binds” in assay [4] and “no binding” in assay [5].
